Laboratory results as given in article PMC11376382.

What was measured:
[1] = target: 3×HA-FKBP-CUL1 (human | Cyanidioschyzon merolae)
[2] = target: 3×HA-FKBP-SKP1 (human | Cyanidioschyzon merolae)

mVenus-FRB (domain or fragment) gave a half-life (t1/2) of mVenus-FRB in the mV^RD-CUL1 strain after the addition of 500 nM rapamycin (the bridging compound), immunoblot time course [1] of 30 min and a half-life (t1/2) of mVenus-FRB in the mV^RD-SKP1 strain after the addition of 500 nM rapamycin (the bridging compound), immunoblot time course [2] of 46 min.
